Laboratory results published in paper PMC3691326, “Structure of the Human Telomeric Stn1-Ten1 Capping Complex” (PLoS ONE, 2013).
Numbering of substitutions follows the chain as printed. In names and notes the source's numbering stands. Each block holds one binder with its values, some of them ahead of it.

How the values were obtained:
[1] = target: T1, hStn1 (Homo sapiens, UniProt Q9H668 1-368); assay: fluorescence polarization; FP: 100 mM NaCl, 5 mM MgCl2, 1 mM DTT, 5% glycerol, 1 mg/mL BSA, 2.5 nM 6-FAM DNA, room temperature; pH not stated; conditions: protein: recombinant; tags: none stated after TEV cleavage (his-MBP fusion removed); single strand
T1 sequence: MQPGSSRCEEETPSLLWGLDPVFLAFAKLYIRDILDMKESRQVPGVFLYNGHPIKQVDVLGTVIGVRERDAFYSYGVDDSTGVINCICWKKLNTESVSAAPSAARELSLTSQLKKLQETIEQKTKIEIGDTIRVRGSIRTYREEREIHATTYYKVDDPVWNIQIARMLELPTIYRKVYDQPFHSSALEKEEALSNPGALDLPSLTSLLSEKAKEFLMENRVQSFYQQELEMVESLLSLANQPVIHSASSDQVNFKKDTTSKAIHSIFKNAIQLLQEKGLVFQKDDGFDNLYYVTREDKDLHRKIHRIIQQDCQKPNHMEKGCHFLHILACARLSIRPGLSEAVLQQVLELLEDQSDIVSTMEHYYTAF

[2] = target: T2, hTen1 (Homo sapiens, UniProt Q86WV5 1-123); assay: fluorescence polarization; not detected; FP: 100 mM NaCl, 5 mM MgCl2, 1 mM DTT, 5% glycerol, 1 mg/mL BSA, 2.5 nM 6-FAM DNA, room temperature; pH not stated; conditions: protein: recombinant; single strand
T2 sequence: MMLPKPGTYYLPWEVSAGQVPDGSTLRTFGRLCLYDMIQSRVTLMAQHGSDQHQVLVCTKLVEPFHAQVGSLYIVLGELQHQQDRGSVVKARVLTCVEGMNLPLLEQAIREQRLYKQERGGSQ

[3] = target: T3, human Stn1, full length, wild type (human, UniProt Q9H668 1-368); assay: ITC; MicroCal iTC200; hTen1 at 125 µM injected into the cell with hStn1 at 12 µM; 20°C; 300 mM KCl, 25 mM Tris-HCl pH 7.5, 1 mM DTT, 5% glycerol; 2.47 µL injections; conditions: both partners purified
T3 construct: human Stn1 (hStn1), subunit of the human CST complex, full length; The methods describe the his-MBP tag for hStn1N only and say that full-length hStn1 was overexpressed and purified by the same procedure; also called hStn1; hStn1(WT); not shown: His (by 'the same procedure' as hStn1N), N-terminal, cleaved; MBP (by 'the same procedure' as hStn1N), N-terminal, cleaved
T3 sequence (looked up): T1 sequence

Binder: GTTACGAAATACGGACAC (ssDNA) [rand18]
Kd [1]: ~0.2 µM

Binder: TTAGGGTTAGGGTTAGGGTTAGGGTTAGGG (ssDNA) [tel30]
binding result [2]: no binding

Binder: TTAGGGTTAGGGTTAGGG (ssDNA) [tel18]
Kd [1]: ~0.2 µM

Binder: TTAGGGTTAGGG (ssDNA) [tel12]
Kd [1]: ~1 µM

Kd [3]: 0.0063 µM
B1: human Ten1, full length, wild type (natural protein, UniProt Q86WV5 1-123, looked up)
chain: T2 sequence
notes: human Ten1 (hTen1), subunit of the human CST complex, full length; Purification is described only for the complex with hStn1N (cells mixed before lysis; tags cleaved by TEV); also called hTen1; hTen1(WT); source: E. coli BL21-CodonPlus(DE3) RIPL, purified; not shown: His, N-terminal, cleaved

Kd [3]: 0.033 µM
B2: human Ten1 (R27Q), full length (natural protein, UniProt Q86WV5 1-123, looked up)
chain: T2 sequence with R27Q
notes: human Ten1, full length, with R27Q; also called hTen1(R27Q); source: purified (pure, homogeneous)

Kd [3]: 0.014 µM
B3: human Ten1 (Y115A), full length (natural protein, UniProt Q86WV5 1-123, looked up)
chain: T2 sequence with Y115A
notes: human Ten1, full length, with Y115A; also called hTen1(Y115A); source: purified (pure, homogeneous)

Kd [3]: 0.013 µM
B4: human Ten1 (R119Q), full length (natural protein, UniProt Q86WV5 1-123, looked up)
chain: T2 sequence with R119Q
notes: human Ten1, full length, with R119Q; also called hTen1(R119Q); source: purified (pure, homogeneous)
